# From article PMC10112802
# B1: KSHV viral interferon regulatory factor 1, wild type, Flag-tagged (vIRF1-WT-Flag) [modified: lysine propionylation at Lys406 and Lys442 and lysine acetylation, as found on vIRF1 immunoprecipitated from these cells; lysine … (parent)
# chain 1: MDPGQRPNPFGAPGAIPKKPCLSQGSPGTSGSGAPCDEPSRSESPGEGPSGTGGSAAAGDITRQAVVAAITEWSRTRQLRISTGASEGKASIKDWIVCQVNSGKFPGVEWEDEERTRFRIPVTPLADPCFEWRRDGELGVVYIRERGNMPVDASFKGTRGRRRMLAALRRTRGLQEIGKGISQDGHHFLVFRVRKPEEEQCVECGVVAGAVHDFNNMARLLQEGFFSPGQCLPGEIVTPVPSCTTAEGQEAVIDWGRLFIRMYYNGEQVHELLTTSQSGCRISSALRRDPAVHYCAVGSPGQVWLPNVPNLACEIAKRELCDTLDACAKGILLTSSCNGIFCVCYHNGPVHFIGNTVPPDSGPLLLPQGKPTRIFNPNTFLVGLANSPLPAPSHVTCPLVKLWLGKPVAVGKLEPHAPSPRDFAARCSNFSDACVVLEIMPKPLWDAMQ
# chain 2: MGTPKPRILPWLVSQLDLGQLEGVAWVNKSRTRFRIPWKHGLRQDAQQEDFGIFQAWAEATGAYVPGRDKPDLPTWKRNFRSALNRKEGLRLAEDRSKDPHDPHKIYEFVNSGVGDFSQPDTSPDTNGGGSTSDTQEDILDELLGNMVLAPLPDPGPPSLAVAPEPCPQPLRSPSLDNPTPFPNLGPSENPLKRLLVPGEEWEFEVTAFYRGRQVFQQTISCPEGLRLVGSEVGDRTLPGWPVTLPDPGMSLTDRGVMSYVRHVLSCLGGGLALWRAGQWLWAQRLGHCHTYWAVSEELLPNSGHGPDGEVPKDKEGGVFDLGPFIVDLITFTEGSGRSPRYALWFCVGESWPQDQPWTKRLVMVKVVPTCLRALVEMARVGGASSLENTVDLHISNSHPLSLTSDQYKAYLQDLVEGMDFQGPGES
# Variants of: B1
# Assay: co-immunoprecipitation (anti-Myc IP, anti-Flag Western blot)
# Details: with Myc-tagged IRF3 (IRF3-Myc); HEK293T cells; parent: 1
row,Variant,ratio to parent
1,chain 1 K406R,0.5
2,chain 1 K317R K329R K370R K401R K406R K412R K442R,0.1
3,chain 1 K89R K93R K104R K156R K179R K195R,0.7
4,chain 1 K442R,0.2
